Data taken from patent US9023604 (IBA, dated 2015).
Residue numbers refer to the chain shown, from its start. In names and notes the source's numbering stands.

B1: 13B8.2 Fab fragment (variable domains of murine anti-CD4 antibody 13B8.2, human CH1 gamma1 and human kappa constant domains), heavy chain fused to One-STrEP-tag (Fab, V domains shown)
VH: QVQLKQSGPGLVQPSQSLSITCTVSGFSLTTFGVHWVRQSPGKGLEWLGVIWRSGITDYNVPFMSRLSITKDNSKSQVFFKLNSLQPDDTAIYYCAKNDPGTGFAYWGQGTLVTVSA
VL: DIQMTQSPASLSASVGETVTFTCRASEMIYSYLAWYQQKQGKSPQLLVHDAKTLAEGVPSRFSGGGSGTQFSLKINTLQPEDFGTYYCQHHYGNPPTFGGGTKLEIKR
notes: Expressed in the E. coli periplasm; Stained as a monomer or multimerized on Strep-Tactin PE; also called CD4 wt (13B8.2); 13B8.2 wildtype (wt) Fab fragment
B2: Mutant 13B8.2 Fab fragment with Tyr at position 92 of the light chain mutated to Ala, heavy chain fused to One-STrEP-tag (Fab, V domains shown)
VH: B1 VH
VL: B1 VL with Y92A
notes: also called CD4 mutant 2 (Y92A); mutant 2
B3: Mutant 13B8.2 Fab fragment with Phe at position 100 of the heavy chain mutated to Ala, heavy chain fused to One-STrEP-tag (Fab, V domains shown)
VH: B1 VH with F104A
VL: B1 VL
notes: also called CD4 mutant 1 (F100A); F100K-H
B4: Mutant 13B8.2 Fab fragment with His at position 91 of the light chain mutated to Ala, heavy chain fused to One-STrEP-tag (Fab, V domains shown)
VH: B1 VH
VL: B1 VL with H91A
notes: also called CD4 mutant 4 (H91A); mutant 4
B5: Mutant 13B8.2 Fab fragment with His at position 35 of the heavy chain mutated to Ala, heavy chain fused to One-STrEP-tag (Fab, V domains shown)
VH: B1 VH with H35A
VL: B1 VL
notes: also called CD4 mutant 3 (H35A); mutant 3

molecular target: T1, CD4 cell surface receptor molecule on peripheral blood mononuclear cells (PBMCs) (human, UniProt P01730 26-458); assay: flow cytometry, PBMCs, live CD3+ T cells; column 'Fab monomer -> ST-PE': cells incubated with monomeric Fab, washed, then stained with Strep-Tactin PE; y axis CD4 Fab-multimer / Fab-monomer, x axis CD8
T1 construct: whole, on cells; also called CD4 receptor molecule
Source text: (§1) Peripheral Blood Mononuclear Cells (PBMCs) were stained with anti-CD4 Fab fragments (receptor binding reagent) fused to a sequential arrangement of two Strep-tag® sequences (commercially available under the trade name "One-STrEP-tag"; binding partner C) and multimerized on phycoerythrin labeled Strep-Tactin® (Strep-Tactin PE; IBA GmbH, Göttingen, Germany; multimerization reagent comprising at least 2 binding sites Z for the binding partner C) and analyzed either before (second column) or after treatment with D-biotin (third column). Remaining Fab-monomers (i.e. Fab fragments used as receptor binding reagent) on the target cell surface were then detected after subsequent washing steps to remove […] using Strep-Tactin PE alone (without bound Fab fragments) (fourth column). Fab-multimer staining after the reversible staining described above of the cells was performed again (fifth column) to control completion of biotin removal which otherwise would have hampered the staining of remaining Fab-monomers with Strep-Tactin PE alone (without bound Fab fragments) as shown in the fourth column and which thus would have led to a wrong conclusion of the experiment. Alternatively, cells were incubated with monomeric Fab-fragments, washed and subsequently analyzed after staining with Strep-Tactin® PE (first, i.e. left-most column). Live CD3^+ T cells are shown. Numbers in the dot plots indicate the percentage of cells within gates.
(§2) For staining and dissociation experiments, 5 ×10^6 PBMCs were incubated with the respective anti-CD4 Fab-multimer-Strep-Tactin® PE complexes or with the corresponding Fab-monomers (the latter not complexed with Strep-Tactin® PE). […] After D-biotin-mediated disruption of the multimeric complexes (FIG. 2, third column) and subsequent washing, the cells were probed for residual surface-bound Fab fragments by the addition of Strep-Tactin® PE alone (without bound Fab) (FIG. 2, fourth column).

In order of falling “percentage of cells within gate” value:
1. B1  20%
2. B3  19.9%
3. B5  0.007%
4. B4  0.0039%
5. B2  0.0022%

molecular target: T1, CD4 cell surface receptor molecule on …; assay: flow cytometry, PBMCs, live CD3+ T cells; column 'Fab multimer -> D-biotin -> Fab multimer': second Fab-multimer staining after D-biotin and washing
Source text: as §1
(§3) For staining and dissociation experiments, 5 ×10^6 PBMCs were incubated with the respective anti-CD4 Fab-multimer-Strep-Tactin® PE complexes or with the corresponding Fab-monomers (the latter not complexed with Strep-Tactin® PE).

In order of falling “percentage of cells within gate” value:
1. B4  20%
2. B5  19.3%
3. B3  19.2%
4. B1  18.8%
5. B2  18.8%

molecular target: T1, CD4 cell surface receptor molecule on …; assay: flow cytometry, PBMCs, live CD3+ T cells; column 'Fab multimer': Fab multimerized on Strep-Tactin PE
Description: (§4) Remaining Fab-monomers (i.e. Fab fragments used as receptor binding reagent) on the target cell surface were then detected after subsequent washing steps to remove […] using Strep-Tactin PE alone (without bound Fab fragments) (fourth column). Fab-multimer staining after the reversible staining described above of the cells was performed again (fifth column) to control completion of biotin removal which otherwise would have hampered the staining of remaining Fab-monomers with Strep-Tactin PE alone (without bound Fab fragments) as shown in the fourth column and which thus would have led to a wrong conclusion of the experiment. Alternatively, cells were incubated with monomeric Fab-fragments, washed and subsequently analyzed after staining with Strep-Tactin® PE (first, i.e. left-most column). Live CD3^+ T cells are shown. Numbers in the dot plots indicate the percentage of cells within gates.
(§5) For staining of a CD4 receptor molecule specific target cell population in a mixture of cells, Strep-Tactin® labeled with phycoerythrine as a fluorescent label (IBA GmbH, Göttingen, Germany) was used as multimerization reagent together with the monomeric CD4 binding Fab-One-STrEP fragment of the variants of the antibody 13B8.2 (that served as receptor binding reagent) as described below. For FACS analysis 5×10^6 PBMCs were incubated with Fab multimers consisting of 0.2 μg Fab-fragment (comprising binding site B) equipped with the One-STrEP-tag (binding partner C) as receptor binding reagent and 0.75 μg Strep-Tactin® PE (IBA GmbH, Göttingen, Germany) as multimerization reagent using the protocol below. In addition, after FACS separation, the multivalent complexes were disrupted in a portion of each of the stained cells by addition of biotin as described below. Control antibody stainings were performed by concomitant application of the respective antibody: anti-CD4 (OKT4) (from eBiosciences, San Diego, Calif., USA). After the staining procedure of the present invention, cells were subsequently stained with propidium iodide for live/dead discrimination.
Protocol for Staining of 5×10^6 Cells with Receptor Binding Reagent and Multimerization Reagent 1. 0.75 μg Strep-Tactin PE were incubated with 0.2 μg monomeric CD4 binding Fab-One-STrEP fragment for 30 minutes at 4° C. in the dark. 2.

In order of falling “percentage of cells within gate” value:
1. B5  23.4%
2. B1  23.3%
3. B4  23.1%
4. B3  23%
5. B2  14.7%

molecular target: T1, CD4 cell surface receptor molecule on …; assay: flow cytometry, PBMCs, live CD3+ T cells; column 'Fab multimer -> D-biotin': Fab-multimer staining analysed after treatment with D-biotin
Description: as §4, §5, §3

In order of falling “percentage of cells within gate” value:
1. B1  0.041%
2. B5  0.041%
3. B2  0.034%
4. B4  0.017%
5. B3  0.014%

molecular target: T1, CD4 cell surface receptor molecule on …; assay: flow cytometry, PBMCs, live CD3+ T cells; column 'Fab multimer -> D-biotin -> ST-PE': after D-biotin and washing, remaining Fab monomers detected with Strep-Tactin PE alone
Source text: as §1, §2

In order of falling “percentage of cells within gate” value:
1. B3  16.4%
2. B1  16.1%
3. B5  0.019%
4. B4  0.00284%
5. B2  0.0017%
